# Test results published in paper PMC10777205, “Identification of the p-coumaric acid biosynthetic gene cluster in Kutzneria albida: insights into the diazotization-dependent deamination pathway” (Beilstein Journal of Organic Chemistry, 2024).
# B1: AvaA7 (Streptomyces sp.) (protein)
# chain: MRVLVAGATGVIGHPLVGALRARGHNVSALVRDASRAPEADRVVVADALDREAVLSAVSAARPEVVVHQLTALRLLRDDPPEAFAQTARLRTEGTAHLVEAARAAGARRLVAQSIAFAAAPQGPPVLDEDAPLYVDAPDPGWAATVRAVAELERLVASSDLAGLVLRYGTLYGPGTGYARDGGTALRVLAGKLPLPEGGAGVTSFLHVDDAVGAAVAAVESEATGCLHVTDDEPAPAAQWLPHYARTLGAPPPRTLPAALAPRLLGWFMTHQLTTARGAANDRARTALGWKPTHPSWRDGLGRE
# notes: recombinant
# Assays:
# purified protein [1] = substrate: NC(=O)C1=CN([C@@H]2O[C@H](COP(=O)(O)OP(=O)(O)OC[C@H]3O[C@@H](n4cnc5c(N)ncnc54)[C@H](OP(=O)(O)O)[C@@H]3O)[C@@H](O)[C@H]2O)C=CC1; experiment: purified protein; assay type: biochemical, Streptomyces sp.; conditions: 3-DAA made in situ by CmaA6 from 1.0 mM 3-AAA, pH 8.0, varied: cofactor
# purified protein [2] = substrate: [N-]=[N+]=C1C=C(/C=C/C=C/C(=O)O)C=CC1=O; experiment: purified protein; assay type: biochemical, Streptomyces sp.; conditions: 800 µM NADPH, 3-DAA made in situ by CmaA6, 25-400 µM, pH 8.0
protein,measurement,setting,value
B1,Km,purified protein [1],138 ± 10 µM
same,kcat,purified protein [1],4.433 ± 0.0333 s⁻¹
same,kcat/Km,purified protein [1],31700 M⁻¹ s⁻¹
same,Km,purified protein [2],152 ± 31 µM
same,kcat,purified protein [2],10.2 ± 0.917 s⁻¹
same,kcat/Km,purified protein [2],66700 M⁻¹ s⁻¹
